From paper PMC2879511 (Nucleic Acids Research, 2010)

B4: 4-subunit middle module complex Med7/10/21/31-His6 (complex)
chain 1: MSNDPGNEVSSLYPPPPPYVKFFTQSNLEKLPKYKEKKAASAKQTAPNNSNGGSEEEITCALDYLIPPPMPKNQQYRAFGSIWQVKDQLPDLESMGLTQLYKKSTENESTNYQYKIQELRKLLKSLLLNYLELIGVLSINPDMYERKVENIRTILVNIHHLLNEYRPHQSRESLIMLLEEQLEYKRGEIREIEQVCKQVHDKLTSIQDTLRTGSQSPPSSSQ
chain 2: MNGNSTNNEQLQQELATTQDQVASIIESFVELGVSIYDFPGTPEATKGMITNLQRNVDRLYKLNVRSNDPQSSLSKVDIPLEVVQYIEDGRNPDIYTREFVEAIRRSNQYQRGKMHGLKQLRDSLADKIVDEFPELKEPVEDIIKRTSPIDNVSNTH
chain 3: MTDRLTQLQICLDQMTEQFCATLNYIDKNHGFERLTVNEPQMSDKHATVVPPEEFSNTIDELSTDIILKTRQINKLIDSLPGVDVSAEEQLRKIDMLQKKLVEVEDEKIEAIKKKEKLLRHVDSLIEDFVDGIANSKKST
chain 4: […]
B8: Med7 (recombinant) (natural protein)
chain: MSNDPGNEVSSLYPPPPPYVKFFTQSNLEKLPKYKEKKAASAKQTAPNNSNGGSEEEITCALDYLIPPPMPKNQQYRAFGSIWQVKDQLPDLESMGLTQLYKKSTENESTNYQYKIQELRKLLKSLLLNYLELIGVLSINPDMYERKVENIRTILVNIHHLLNEYRPHQSRESLIMLLEEQLEYKRGEIREIEQVCKQVHDKLTSIQDTLRTGSQSPPSSSQ

Legend:
[1] = target: T1, Med4 (recombinant) (S. cerevisiae, UniProt Q12343 1-284); assay: copurification after coexpression
T1 sequence: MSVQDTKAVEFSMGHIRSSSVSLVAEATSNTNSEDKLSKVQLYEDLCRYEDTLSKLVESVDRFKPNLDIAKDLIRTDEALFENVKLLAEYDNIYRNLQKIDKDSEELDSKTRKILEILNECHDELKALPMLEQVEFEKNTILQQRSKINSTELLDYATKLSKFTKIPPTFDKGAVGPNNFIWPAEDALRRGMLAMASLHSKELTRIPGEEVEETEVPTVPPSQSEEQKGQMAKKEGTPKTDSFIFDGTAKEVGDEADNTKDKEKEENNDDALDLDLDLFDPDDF

[2] = target: B4; assay: native MS
[3] = target: 6-subunit complex Med4/7/9/10/21/31 of the coexpressed 7-subunit middle module (S. cerevisiae, UniProt Q12343;Q08278;P33308;Q06213;P47822;P38633); assay: native MS
[4] = target: the molecule itself; assay: native MS
[5] = target: B8; assay: native MS
[6] = target: T1, Med4 (recombinant); assay: native MS

B1: Med9 (recombinant) (natural protein)
chain: MNLQNNVLNQIHQILLPTNPTLDKPNAEATKEEFSSAENRDEKDYLTNQQPKNLSTPSTSSNGEFIPHIFYSLHQIRKDPNNLSNQLETLTGSIRHRLKLCKSLISENEDTKDLLSKSPSEWQDIIHQREQELQIKRDVLDDLYRKLQR
[1]
  binding result: binds

B2: Med4/9 heterodimer (complex)
chain 1: MSVQDTKAVEFSMGHIRSSSVSLVAEATSNTNSEDKLSKVQLYEDLCRYEDTLSKLVESVDRFKPNLDIAKDLIRTDEALFENVKLLAEYDNIYRNLQKIDKDSEELDSKTRKILEILNECHDELKALPMLEQVEFEKNTILQQRSKINSTELLDYATKLSKFTKIPPTFDKGAVGPNNFIWPAEDALRRGMLAMASLHSKELTRIPGEEVEETEVPTVPPSQSEEQKGQMAKKEGTPKTDSFIFDGTAKEVGDEADNTKDKEKEENNDDALDLDLDLFDPDDF
chain 2: MNLQNNVLNQIHQILLPTNPTLDKPNAEATKEEFSSAENRDEKDYLTNQQPKNLSTPSTSSNGEFIPHIFYSLHQIRKDPNNLSNQLETLTGSIRHRLKLCKSLISENEDTKDLLSKSPSEWQDIIHQREQELQIKRDVLDDLYRKLQR
[2]
  stoichiometry N: 1

B3: StrepII-tagged Med1 (natural protein)
chain: MVEGDSYVETLDSMIELFKDYKPGSITLENITRLCQTLGLESFTEELSNELSRLSTASKIIVIDVDYNKKQDRIQDVKLVLASNFDNFDYFNQRDGEHEKSNILLNSLTKYPDLKAFHNNLKFLYLLDAYSHIESDSTSHNNGSSDKSLDSSNASFNNQGKLDLFKYFTELSHYIRQCFQDNCCDFKVRTNLNDKFGIYILTQGINGKEVPLAKIYLEENKSDSQYRFYEYIYSQETKSWINESAENFSNGISLVMEIVANAKESNYTDLIWFPEDFISPELIIDKVTCSSNSSSSPPIIDLFSNNNYNSRIQLMNDFTTKLINIKKFDISNDNLDLISEILKWVQWSRIVLQNVFKLVSTPSSNSNSSELEPDYQAPFSTSTKDKNSSTSNTEPIPRSNRHGSVVEASRRRRSSTNKSKRPSITEAMMLKEEGLQQFNLHEILSEPAIEEENGDSIKEHSTTMDGANDLGFTASVSNQENAGTDIVMEDHGVLQGTSQNYGTATADDADIEMKDVSSKPSKPESSVLQLIVSEDHIILDTISECNLYDDVKCWSKFIEKFQDIVS
[3]
  stoichiometry N: 1

## B4
[4]
  stoichiometry N: 2

B5: 6-subunit middle module complex Med4/7/9/10/21/31 (complex)
chain 1: MSVQDTKAVEFSMGHIRSSSVSLVAEATSNTNSEDKLSKVQLYEDLCRYEDTLSKLVESVDRFKPNLDIAKDLIRTDEALFENVKLLAEYDNIYRNLQKIDKDSEELDSKTRKILEILNECHDELKALPMLEQVEFEKNTILQQRSKINSTELLDYATKLSKFTKIPPTFDKGAVGPNNFIWPAEDALRRGMLAMASLHSKELTRIPGEEVEETEVPTVPPSQSEEQKGQMAKKEGTPKTDSFIFDGTAKEVGDEADNTKDKEKEENNDDALDLDLDLFDPDDF
chain 2: MSNDPGNEVSSLYPPPPPYVKFFTQSNLEKLPKYKEKKAASAKQTAPNNSNGGSEEEITCALDYLIPPPMPKNQQYRAFGSIWQVKDQLPDLESMGLTQLYKKSTENESTNYQYKIQELRKLLKSLLLNYLELIGVLSINPDMYERKVENIRTILVNIHHLLNEYRPHQSRESLIMLLEEQLEYKRGEIREIEQVCKQVHDKLTSIQDTLRTGSQSPPSSSQ
chain 3: MNLQNNVLNQIHQILLPTNPTLDKPNAEATKEEFSSAENRDEKDYLTNQQPKNLSTPSTSSNGEFIPHIFYSLHQIRKDPNNLSNQLETLTGSIRHRLKLCKSLISENEDTKDLLSKSPSEWQDIIHQREQELQIKRDVLDDLYRKLQR
chain 4: MNGNSTNNEQLQQELATTQDQVASIIESFVELGVSIYDFPGTPEATKGMITNLQRNVDRLYKLNVRSNDPQSSLSKVDIPLEVVQYIEDGRNPDIYTREFVEAIRRSNQYQRGKMHGLKQLRDSLADKIVDEFPELKEPVEDIIKRTSPIDNVSNTH
chain 5: MTDRLTQLQICLDQMTEQFCATLNYIDKNHGFERLTVNEPQMSDKHATVVPPEEFSNTIDELSTDIILKTRQINKLIDSLPGVDVSAEEQLRKIDMLQKKLVEVEDEKIEAIKKKEKLLRHVDSLIEDFVDGIANSKKST
chain 6: […]
[4]
  stoichiometry N: 2

B6: Med21 (recombinant) (natural protein)
chain: MTDRLTQLQICLDQMTEQFCATLNYIDKNHGFERLTVNEPQMSDKHATVVPPEEFSNTIDELSTDIILKTRQINKLIDSLPGVDVSAEEQLRKIDMLQKKLVEVEDEKIEAIKKKEKLLRHVDSLIEDFVDGIANSKKST
[5]
  binding result: binds

B7: Med10 (recombinant) (natural protein)
chain: MNGNSTNNEQLQQELATTQDQVASIIESFVELGVSIYDFPGTPEATKGMITNLQRNVDRLYKLNVRSNDPQSSLSKVDIPLEVVQYIEDGRNPDIYTREFVEAIRRSNQYQRGKMHGLKQLRDSLADKIVDEFPELKEPVEDIIKRTSPIDNVSNTH
[5]
  binding result: binds

## B8
[6]
  binding result: binds
